In article PMC8136821 one finds stoichiometry N data, which are given here for one substance.

The target in this assay is H. pylori RNase R (HpRNase R), recombinant, His-tagged (H. pylori). As to the kind of experiment: AUC.
H. pylori RNase R (HpRNase R), recombinant, His-tagged (H. pylori), sequence (P56123 whole entry): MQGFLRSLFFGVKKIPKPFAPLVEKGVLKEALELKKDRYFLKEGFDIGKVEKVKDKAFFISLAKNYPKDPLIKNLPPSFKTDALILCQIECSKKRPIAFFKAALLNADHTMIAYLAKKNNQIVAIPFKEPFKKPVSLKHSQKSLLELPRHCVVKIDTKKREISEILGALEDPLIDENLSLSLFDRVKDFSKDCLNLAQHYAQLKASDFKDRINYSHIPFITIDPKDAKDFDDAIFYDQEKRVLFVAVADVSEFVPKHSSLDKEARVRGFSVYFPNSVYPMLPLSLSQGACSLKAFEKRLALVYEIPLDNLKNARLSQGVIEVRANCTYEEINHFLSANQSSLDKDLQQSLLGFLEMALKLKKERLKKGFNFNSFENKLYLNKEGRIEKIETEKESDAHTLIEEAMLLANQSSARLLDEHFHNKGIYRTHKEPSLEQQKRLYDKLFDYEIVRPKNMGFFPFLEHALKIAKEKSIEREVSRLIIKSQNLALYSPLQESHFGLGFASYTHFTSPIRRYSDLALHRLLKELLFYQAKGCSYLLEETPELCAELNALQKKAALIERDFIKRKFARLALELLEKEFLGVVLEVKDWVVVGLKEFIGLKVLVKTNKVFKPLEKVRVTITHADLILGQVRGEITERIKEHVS

RhpA DEAD-box RNA helicase of H. pylori, recombinant, His-tagged (enzyme), sequence (B9XXL6 whole entry): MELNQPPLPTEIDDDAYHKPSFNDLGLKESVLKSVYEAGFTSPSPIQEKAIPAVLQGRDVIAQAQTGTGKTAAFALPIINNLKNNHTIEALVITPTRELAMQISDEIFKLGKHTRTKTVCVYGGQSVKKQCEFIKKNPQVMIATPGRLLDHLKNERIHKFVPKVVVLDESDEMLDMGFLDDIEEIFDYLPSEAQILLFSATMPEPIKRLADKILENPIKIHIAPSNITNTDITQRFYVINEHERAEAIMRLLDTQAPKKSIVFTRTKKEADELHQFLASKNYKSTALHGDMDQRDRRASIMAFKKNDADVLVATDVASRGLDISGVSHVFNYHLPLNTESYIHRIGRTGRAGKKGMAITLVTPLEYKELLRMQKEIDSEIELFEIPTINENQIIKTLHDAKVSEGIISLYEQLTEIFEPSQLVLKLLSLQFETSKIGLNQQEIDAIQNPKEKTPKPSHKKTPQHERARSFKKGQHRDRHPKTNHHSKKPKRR

Turning to “RhpA DEAD-box RNA helicase of H. pylori, recombinant, His-tagged (enzyme)”, the stoichiometry N (commonly a count of units in the complex or per binding partner) came to 1.
